Source: patent US20180155451A1 (published 2018)

T1: FcγRIIa H (human, UniProt P12318 34-217)
T1 construct: extracellular domain; also called FcgRIIa H; FcγRIIa type H; not shown: His tag attached to the C terminus
T1 sequence (looked up): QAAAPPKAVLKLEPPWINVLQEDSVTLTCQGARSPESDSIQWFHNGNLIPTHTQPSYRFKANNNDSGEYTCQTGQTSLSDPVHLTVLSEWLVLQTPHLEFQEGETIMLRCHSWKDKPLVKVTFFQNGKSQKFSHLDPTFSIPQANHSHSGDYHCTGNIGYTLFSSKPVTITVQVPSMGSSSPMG

T2: FcγRIIb extracellular domain with C-terminal His tag (human, UniProt P31994 43-217)
T2 construct: extracellular domain; also called 2b; FcgRIIb
T2 sequence (looked up): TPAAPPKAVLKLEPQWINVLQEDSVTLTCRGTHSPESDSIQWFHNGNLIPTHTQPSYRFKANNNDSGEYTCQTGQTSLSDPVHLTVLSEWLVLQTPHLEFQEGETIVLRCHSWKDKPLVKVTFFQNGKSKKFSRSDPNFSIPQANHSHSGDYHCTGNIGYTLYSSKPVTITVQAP

T3: FcγRIIb (human, UniProt P31994 43-217)
T3 construct: extracellular domain; also called FcgRIIb; 2b; not shown: His tag attached to the C terminus
T3 sequence (looked up): T2 sequence (looked up)

B1: GpH7-A5/GpH7-B3 variant L234_16H/GpL16-k0 (antibody, human IgG1, kappa)
heavy 1: not shown
heavy 2: not shown
light: DIVMTQSPLSLPVTPGEPASISCQASESLVHSNRNTYLHWYLQKPGQSPQLLIYKVSNRFSGVPDRFSGSGSGTDFTLKISRVEAEDVGVYYCSQNTHVPPTFGQGTKVEIERTVAAPSVFIFPPSDEQLKSGTASVVCLLNNFYPREAKVQWKVDNALQSGNSQESVTEQDSKDSTYSLSSTLTLSKADYEKHKVYACEVTHQGLSSPVTKSFNRGEC
notes: Heterodimerized IgG1, mutation in the GpH7-B3 chain only; also called He Ab
B2: GpH7-A5/GpH7-B3 variant S239_11K/GpL16-k0 (antibody, human IgG1, kappa)
heavy 1: not shown
heavy 2: not shown
light: B1 light
notes: as for B1
B3: GpH7-A5/GpH7-B3 variant S239_16H/GpL16-k0 (antibody, human IgG1, kappa)
heavy 1: not shown
heavy 2: not shown
light: B1 light
notes: as for B1
B4: GpH7-A5/GpH7-B3 variant L235_13S/GpL16-k0 (antibody, human IgG1, kappa)
heavy 1: not shown
heavy 2: not shown
light: B1 light
notes: as for B1
B5: GpH7-A5/GpH7-B3 variant L235_19Q/GpL16-k0 (antibody, human IgG1, kappa)
heavy 1: not shown
heavy 2: not shown
light: B1 light
notes: as for B1
B6: GpH7-A5/GpH7-B3 variant L235_14T/GpL16-k0 (antibody, human IgG1, kappa)
heavy 1: not shown
heavy 2: not shown
light: B1 light
notes: as for B1
B7: GpH7-A5/GpH7-B3 variant L235_18N/GpL16-k0 (antibody, human IgG1, kappa)
heavy 1: not shown
heavy 2: not shown
light: B1 light
notes: as for B1
B8: GpH7-A5/GpH7-B3 variant L234_19Q/GpL16-k0 (antibody, human IgG1, kappa)
heavy 1: not shown
heavy 2: not shown
light: B1 light
notes: as for B1
B9: GpH7-A5/GpH7-B3 variant L235_03V/GpL16-k0 (antibody, human IgG1, kappa)
heavy 1: not shown
heavy 2: not shown
light: B1 light
notes: as for B1
B10: GpH7-A5/GpH7-B3 variant L235_11K/GpL16-k0 (antibody, human IgG1, kappa)
heavy 1: not shown
heavy 2: not shown
light: B1 light
notes: as for B1
B11: GpH7-A5/GpH7-B3 variant L235_01G/GpL16-k0 (antibody, human IgG1, kappa)
heavy 1: not shown
heavy 2: not shown
light: B1 light
notes: as for B1
B12: GpH7-A5/GpH7-B3 variant S239_12R/GpL16-k0 (antibody, human IgG1, kappa)
heavy 1: not shown
heavy 2: not shown
light: B1 light
notes: as for B1
B13: GpH7-A5/GpH7-B3 variant E269_01G/GpL16-k0 (antibody, human IgG1, kappa)
heavy 1: not shown
heavy 2: not shown
light: B1 light
notes: He Ab: alteration in one H chain only; also called He Ab
B14: GpH7-A5/GpH7-B3 variant G236_08L/GpL16-k0 (antibody, human IgG1, kappa)
heavy 1: not shown
heavy 2: not shown
light: B1 light
notes: as for B13
B15: GpH7-A5/GpH7-B3 variant E269_18N/GpL16-k0 (antibody, human IgG1, kappa)
heavy 1: not shown
heavy 2: not shown
light: B1 light
notes: as for B13
B16: GpH7-A5/GpH7-B3 variant E269_12R/GpL16-k0 (antibody, human IgG1, kappa)
heavy 1: not shown
heavy 2: not shown
light: B1 light
notes: as for B13
B17: GpH7-A5/GpH7-B3 variant E269_11K/GpL16-k0 (antibody, human IgG1, kappa)
heavy 1: not shown
heavy 2: not shown
light: B1 light
notes: as for B13
B18: GpH7-A5/GpH7-B3 variant E269_03V/GpL16-k0 (antibody, human IgG1, kappa)
heavy 1: not shown
heavy 2: not shown
light: B1 light
notes: as for B13
B19: GpH7-A5/GpH7-B3 variant L234_11K/GpL16-k0 (antibody, human IgG1, kappa)
heavy 1: not shown
heavy 2: not shown
light: B1 light
notes: as for B13
B20: GpH7-A5/GpH7-B3 variant L234_03V/GpL16-k0 (antibody, human IgG1, kappa)
heavy 1: not shown
heavy 2: not shown
light: B1 light
notes: as for B13
B21: GpH7-A5/GpH7-B3 variant G236_03V/GpL16-k0 (antibody, human IgG1, kappa)
heavy 1: not shown
heavy 2: not shown
light: B1 light
notes: as for B13
B22: GpH7-A5/GpH7-B3 variant G236_12R/GpL16-k0 (antibody, human IgG1, kappa)
heavy 1: not shown
heavy 2: not shown
light: B1 light
notes: as for B13
B23: GpH7-A5/GpH7-B3 variant G236_05P/GpL16-k0 (antibody, human IgG1, kappa)
heavy 1: not shown
heavy 2: not shown
light: B1 light
notes: as for B13
B24: GpH7-A5/GpH7-B3 variant L234_07I/GpL16-k0 (antibody, human IgG1, kappa)
heavy 1: not shown
heavy 2: not shown
light: B1 light
notes: as for B13
B25: GpH7-A5/GpH7-B3 variant E269_16H/GpL16-k0 (antibody, human IgG1, kappa)
heavy 1: not shown
heavy 2: not shown
light: B1 light
notes: as for B13
B26: GpH7-A5/GpH7-B3 variant E269_06M/GpL16-k0 (antibody, human IgG1, kappa)
heavy 1: not shown
heavy 2: not shown
light: B1 light
notes: as for B13
B27: GpH7-A5/GpH7-B3 variant G236_07I/GpL16-k0 (antibody, human IgG1, kappa)
heavy 1: not shown
heavy 2: not shown
light: B1 light
notes: as for B13
B28: GpH7-A5/GpH7-B3 variant E269_08L/GpL16-k0 (antibody, human IgG1, kappa)
heavy 1: not shown
heavy 2: not shown
light: B1 light
notes: as for B13
B29: GpH7-A5/GpH7-B3 variant E269_07I/GpL16-k0 (antibody, human IgG1, kappa)
heavy 1: not shown
heavy 2: not shown
light: B1 light
notes: as for B13
B30: GpH7-A5/GpH7-B3 variant G236_16H/GpL16-k0 (antibody, human IgG1, kappa)
heavy 1: not shown
heavy 2: not shown
light: B1 light
notes: as for B13
B31: GpH7-A5/GpH7-B3 variant L235_12R/GpL16-k0 (antibody, human IgG1, kappa)
heavy 1: not shown
heavy 2: not shown
light: B1 light
notes: as for B13
B32: GpH7-A5/GpH7-B3 variant G236_20W/GpL16-k0 (antibody, human IgG1, kappa)
heavy 1: not shown
heavy 2: not shown
light: B1 light
notes: as for B13
B33: GpH7-A5/GpH7-B3 variant E269_02A/GpL16-k0 (antibody, human IgG1, kappa)
heavy 1: not shown
heavy 2: not shown
light: B1 light
notes: as for B13
B34: GpH7-A5/GpH7-B3 variant E269_13S/GpL16-k0 (antibody, human IgG1, kappa)
heavy 1: not shown
heavy 2: not shown
light: B1 light
notes: as for B13
B35: GpH7-A5/GpH7-B3 variant L234_05P/GpL16-k0 (antibody, human IgG1, kappa)
heavy 1: not shown
heavy 2: not shown
light: B1 light
notes: as for B13
B36: GpH7-A5/GpH7-B3 variant G236_04F/GpL16-k0 (antibody, human IgG1, kappa)
heavy 1: not shown
heavy 2: not shown
light: B1 light
notes: as for B13
B37: GpH7-A5/GpH7-B3 variant H268_06M/GpL16-k0 (antibody, human IgG1, kappa)
heavy 1: not shown
heavy 2: not shown
light: B1 light
notes: as for B13
B38: GpH7-A5/GpH7-B3 variant G236_15Y/GpL16-k0 (antibody, human IgG1, kappa)
heavy 1: not shown
heavy 2: not shown
light: B1 light
notes: as for B13

target: T1, FcγRIIa H; experiment: ratio of He/Con_2aH to He/Con_2b (relative SPR binding to FcγRIIa H over FcγRIIb)

Row | He_2aH/2b (IIaH/IIb) | Binder
1 | 1.47 | B1
2 | 1.94 | B2
3 | 1.2 | B3
4 | 1.37 | B4
5 | 1.45 | B5
6 | 1.53 | B6
7 | 1.2 | B7
8 | 1.31 | B8
9 | 1.28 | B9
10 | 3.61 | B10
11 | 1.53 | B11
12 | 1.46 | B12

target: T4, FcγRIIIa extracellular domain with C-terminal His tag (human, UniProt P08637 17-208); experiment: SPR, relative to GpH7-A5/GpH7-B3/GpL16-k0
T4 construct: extracellular domain; also called 3a; FcgRIIIa
T4 sequence (P08637 17-208): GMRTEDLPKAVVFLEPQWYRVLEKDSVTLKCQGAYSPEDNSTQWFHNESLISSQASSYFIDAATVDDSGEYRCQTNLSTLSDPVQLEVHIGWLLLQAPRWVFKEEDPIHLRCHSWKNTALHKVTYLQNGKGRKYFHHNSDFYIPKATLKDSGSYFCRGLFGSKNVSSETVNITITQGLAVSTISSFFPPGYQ

Row | He/Con_3a [control=100] | Binder
13 | 62.2 | B13
14 | 32.5 | B14
15 | 57.8 | B15
16 | 43.2 | B16
17 | 44 | B17
18 | 56.6 | B18
19 | 30.5 | B19
20 | 91.4 | B20
21 | 57.7 | B21
22 | 12.5 | B22
23 | 37.1 | B23
24 | 103 | B24
25 | 51.2 | B25
26 | 58.5 | B26
27 | 59.7 | B27
28 | 52.1 | B28
29 | 55.8 | B29
30 | 43.1 | B30
31 | 41.2 | B31
32 | 135 | B32
33 | 68.7 | B33
34 | 62.7 | B34
35 | 88.1 | B35
36 | 87 | B36
37 | 80.3 | B37
38 | 121 | B38

target: T2, FcγRIIb extracellular domain with …; experiment: SPR, relative to GpH7-A5/GpH7-B3/GpL16-k0

Row | He/Con_2b [control=100] | Binder
39 | 51.5 | B13
40 | 26.8 | B14
41 | 44.8 | B15
42 | 25.2 | B16
43 | 17.8 | B17
44 | 45.1 | B18
45 | 16.2 | B19
46 | 73.1 | B20
47 | 35.3 | B21
48 | 6.8 | B22
49 | 19 | B23
50 | 80.9 | B24
51 | 38.5 | B25
52 | 46.7 | B26
53 | 31 | B27
54 | 42.9 | B28
55 | 43.9 | B29
56 | 27.9 | B30
57 | 58.2 | B32
58 | 49.9 | B33
59 | 47.8 | B34
60 | 72.9 | B35
61 | 39.3 | B36
62 | 65.7 | B37
63 | 39.5 | B38

target: T4, FcγRIIIa extracellular domain with …; experiment: SPR; He/Con_3a over He/Con_2b (FcγRIIb)

Row | He_3a/2b (IIIa/IIb) [ratio] | Binder
64 | 1.21 | B13
65 | 1.21 | B14
66 | 1.29 | B15
67 | 1.72 | B16
68 | 2.47 | B17
69 | 1.25 | B18
70 | 1.88 | B19
71 | 1.25 | B20
72 | 1.64 | B21
73 | 1.84 | B22
74 | 1.95 | B23
75 | 1.27 | B24
76 | 1.33 | B25
77 | 1.25 | B26
78 | 1.93 | B27
79 | 1.21 | B28
80 | 1.27 | B29
81 | 1.54 | B30
82 | 4.29 | B31
83 | 2.33 | B32
84 | 1.38 | B33
85 | 1.31 | B34
86 | 1.21 | B35
87 | 2.21 | B36
88 | 1.22 | B37
89 | 3.06 | B38

target: T3, FcγRIIb; experiment: SPR (Biacore), antibody captured, FcγR as analyte; binding relative to GpH7-A5/GpH7-B3/GpL16-k0 = 100

Row | He/Con_2b [control = 100] | Binder
90 | 59.4 | B1
91 | 24.7 | B2
92 | 49.4 | B3
93 | 48.2 | B4
94 | 42.6 | B5
95 | 46.8 | B6
96 | 54.9 | B7
97 | 60.3 | B8
98 | 66.4 | B9
99 | 6.3 | B10
100 | 35.4 | B11
101 | 39.1 | B12

target: T1, FcγRIIa H; experiment: as above

Row | He/Con_2aH [control = 100] | Binder
102 | 87.3 | B1
103 | 48.1 | B2
104 | 59.4 | B3
105 | 66.1 | B4
106 | 62 | B5
107 | 71.5 | B6
108 | 66.1 | B7
109 | 79.2 | B8
110 | 85.3 | B9
111 | 22.7 | B10
112 | 54.1 | B11
113 | 57.1 | B12
